Experimental data as given in US20250339529A1 (MINK THERAPEUTICS, published 2025).

T1: BCMA-Fc antigen (UniProt Q02223 1-54)
T1 construct: Immobilized on a protein A chip
T1 sequence (looked up): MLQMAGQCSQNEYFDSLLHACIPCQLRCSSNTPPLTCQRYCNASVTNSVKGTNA

T2: BCMA antigen (UniProt Q02223 1-54, limits assumed)
T2 construct: also called wild type BCMA
T2 sequence (looked up): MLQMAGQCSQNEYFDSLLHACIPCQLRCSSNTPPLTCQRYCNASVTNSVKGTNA


Legend:
BCMA-Fc antigen [1] = biological target: T1, BCMA-Fc antigen; test: flow cytometry, lentivirally transduced iNKT cells stained with BCMA-Fc and A647 anti-human IgG Fc; Donor 2, Enriched on K562-BCMA; Non transduced control 1.34
Description: (§1) Purified and a-GalCer expanded iNKT cells from 2 donors were stimulated with TransAct (Miltenyi) and transduced with lentivirus (MOI 3) encoding for various 2nd Generation BCMA-CAR molecule and secreted IL-15. Constructs including F6G-Var2 IL-15, F6G variant 2 (no IL-15), F1G-IL-15, bb2121-IL-15, and CD19-CAR-IL-15 were tested. Cells were expanded for 10 to 12 days then transduced cells were co-cultured with K562 cells expressing BCMA at a ratio iNKT:K562 of 1:1. Cells were cultured and enriched with media supplemented with supporting cytokines IL-2 (100 IU/mL), IL-15 (100 UI/mL) and IL-21 (20 IU/mL). […]
(§2) Transduced cells pre-co-culture and enriched cells post co-culture with K562-BCMA were analyzed for CAR expression by flow cytometry (FIG. 17). iNKT cells were incubated with a LIVE/DEAD (Biolegend) reagents to separate live from dead cells and then stained for cell surface markers BCMA-CAR or CD19-CAR, BUV395 CD8 (BD, clone RPA-T8) and BUV563 CD4 (BD, clone OKT4). BCMA-CAR expression was detected with an unconjugated, primary BCMA-Fc reagent (AcroBiosystems) while CD19 CAR expression was detected with an unconjugated, primary CD19-Fc reagent (AcroBiosystems). […]

BCMA-Fc antigen [2] = biological target: T1, BCMA-Fc antigen; test: flow cytometry, lentivirally transduced iNKT cells stained with BCMA-Fc and A647 anti-human IgG Fc; Donor 1, Transduced; Non transduced control 2.00
Description: as §1, §2

BCMA-Fc antigen [3] = biological target: T1, BCMA-Fc antigen; test: flow cytometry, lentivirally transduced iNKT cells stained with BCMA-Fc and A647 anti-human IgG Fc; Donor 1, Enriched on K562-BCMA; Non transduced control 7.76
Description: as §1, §2

BCMA-Fc antigen [4] = biological target: T1, BCMA-Fc antigen; test: flow cytometry, lentivirally transduced iNKT cells stained with BCMA-Fc and A647 anti-human IgG Fc; Donor 2, Transduced; Non transduced control 0.74
Description: as §1, §2

BCMA antigen = biological target: T2, BCMA antigen; test: SPR (Biacore 4000), cell-free expressed scFv on BCMA antigen
Excerpt: Further, a germlined version of F6 (F6G) was affinity matured by a combination of two methods: Accelerated Drug Discovery (ADD) approach and affinity maturation of by phage libraries. FIGS. 9A-9C describe the ADD approach. FIG. 9A is a schematic representation of the CDR positions undergone mutagenesis. Each amino acid in the heavy and light CDRs was substituted with 8 different amino acids; Tyr, Ser, Pro, Leu, his, Gly, Asp, Asn. Fragments containing single amino acids substitutions were generated by mutagenesis PCR. The PCR fragments were then used as a template to express the scFv in a cell free system. Affinity KD (M) values of mutant scFvs binding to BCMA antigen. Experiment was run in Biacore 4000. The dotted line indicates the binding of the parental F6G clone. KD below the dotted line means improvement in affinity. […] Individual Biacore sensorgrams for E to Y substitution in position 49 of CDRL2 are shown (FIG. 9C).

| Molecule | % of cells in the CAR+ gate (BCMA-Fc antigen [1]) | % of cells in the CAR+ gate (BCMA-Fc antigen [2]) | % of cells in the CAR+ gate (BCMA-Fc antigen [3]) | % of cells in the CAR+ gate (BCMA-Fc antigen [4]) | binding result (BCMA antigen) |
| --- | --- | --- | --- | --- | --- |
| bb2121 CAR on iNKT cells (clinical benchmark) | 94.1% | 15.9% | 95.5% | 36.2% | – |
| F1G scFv CAR on iNKT cells (other, Chimeric antigen receptor on iNKT cells with secreted IL-15; also called F1G-IL-15; F1G IL-15) QVQLVQSGAEVKKPGASVKVSCKASGYTFTSYGISWVRQAPGQGLEWMGWISAYNGNTYYAEDLQGRLTMTTDTSTSTAYMELRSLRSDDTAVYYCAREGSYYDSSGYYLPYWGQGTLVTVSSGGGGSGGGGSGGGASQSALTQPRSVSGSPGQSVTISCTGTSSDVGAYNYVSWYQQHPGKAPKLMIYDVTERPSGVPDRFSGSKSGNTASLTISGLQAEDEADYYCSSYTSSSIAFGGGTKLTVLGQPAAATTTPAPRPPTPAPTIASQPLSLRPEACRPAAGGAVHTRGLDFACDIYIWAPLAGTCGVLLLSLVITLYCKRGRKKLLYIFKQPFMRPVQTTQEEDGCSCRFPEEEEGGCELRVKFSRSADAPAYQQGQNQLYNELNLGRREEYDVLDKRRGRDPEMGGKPRRKNPQEGLYNELQKDKMAEAYSEIGMKGERRRGKGHDGLYQGLSTATKDTYDALHMQALPPR | 93.1% | 20.7% | 31.4% | 20.9% | – |
| F6G scFv (germlined F6, parental clone of the ADD mutagenesis) (scFv, scFv expressed in a cell free system from PCR fragments; also called parental F6G clone; germline F6G) scFv: QVQLVQSGAEVKKPGASVKVSCKASGYTFTGYYMHWVRQAPGQGLEWMGWMNPNSGNTGYAQKFQGRVTMTRNTSISTAYMELSSLRSEDTAVYYCARAQWEPLDYWGQGTLVTVSSGGGGSGGGGSGGGASSYELTQPPSVSVSPGQTARITCSGDALPKKYTYWYQQKSGQAPVLVIYEDTKRPSGIPERFSGSSSGTMATLTISGAQVEDEADYYCLSTDPTGQESVFGGGTKLTVLGQP | – | – | – | – | binds |
| F6G scFv with E to Y substitution in position 49 of CDRL2 (scFv, Cell free expressed scFv; also called E to Y substitution in position 49 of light CDRL2) scFv: QVQLVQSGAEVKKPGASVKVSCKASGYTFTGYYMHWVRQAPGQGLEWMGWMNPNSGNTGYAQKFQGRVTMTRNTSISTAYMELSSLRSEDTAVYYCARAQWEPLDYWGQGTLVTVSSGGGGSGGGGSGGGASSYELTQPPSVSVSPGQTARITCSGDALPKKYTYWYQQKSGQAPVLVIYYDTKRPSGIPERFSGSSSGTMATLTISGAQVEDEADYYCLSTDPTGQESVFGGGTKLTVLGQP | – | – | – | – | binds |
